Reference: the supplement of paper PMC7877785
± gives the uncertainty stated by the source.

Assay: self-splicing fitness, log relative to wild type (ln ratio); higher = more splicing; Tetrahymena group I intron in knt gene, E. coli kanamycin selection, DiMSum; sequences stand for … in CUCUCU…GGAGGGAAAAGUUAUCAGGCAUGCACCUGGUAGCUAGUCUUUAAACCAAUAGAUUGCAUCGGUUUAAAAGGCAAGACCGUCAAAUUGCGGGAAAGGGGUCAACAGCCGUUCAGUACCAAGUCUCAGGGGAAACUUUGAGAUGGCCUUGCAAAGGGUAUGGUAAUAAGCUGACGGACAUGGUCCUAACCACGCAGCCAAGUCCUAAGUCAACAGAUCUUCUGUUGAUAUGGAUGCAGUUCACAGACUAAAUGUCGGUCGGGGAAGAUGUAUUCUUCUCAUAAGAUAUAGUCGGACCUCUCCUUAAUGGGAGCUAGCGGAUGAAGUGAUGCAACACUGGAGCCGCUGGGAACUAAUUUGUAUGCGAAAGUAUAUUGAUUAGUUUUGGAGUACUCGUGGUCG
How it was run: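 DiMSum derived fitness as the error-weighted combination of fold changes across replicates, kanamycin versus no kanamycin, normalised to wild type. E. coli BL21(DE3) held the library, which randomised all eight P1ex-region intron nucleotides within the knt kanamycin-resistance gene on pET-22b(+). Six replicate transformations grew overnight at 37°C or 30°C on LB agar with or without 25 μg/mL kanamycin, also containing 100 μg/mL carbenicillin, 50 μM IPTG and 0.2% rhamnose, and pooled colonies were amplicon-sequenced on an Illumina HiSeq 2500.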

Sequence	self-splicing fitness (ln) (30 °C)	self-splicing fitness (ln) (37 °C)
UUCCAGCAAUAUUACGUAAG	-1.42 ± 0.066	-0.28 ± 0.095
CGCAAGCAAUAUUACGCGGU	-2.75 ± 0.11	-2.44 ± 0.17
CUAUAGCAAUAUUACGAGAC	-1.7 ± 0.37	
UUGCAGCAAUAUUACGACGC	-3.11 ± 0.46	
CUUAAGCAAUAUUACGUGGA	-3.7 ± 0.18	-3.42 ± 0.16
ACAAAGCAAUAUUACGUAGU	-2.57 ± 0.085	-1.43 ± 0.095
CUUAAGCAAUAUUACGGCUA	-2.73 ± 0.45	
UGGCAGCAAUAUUACGACGU	-1.84 ± 0.16	-0.565 ± 0.2
AUAUAGCAAUAUUACGGCUU	0.0949 ± 0.099	0.269 ± 0.12
UGGCAGCAAUAUUACGGGUG	-0.883 ± 0.071	-0.596 ± 0.088
ACUAAGCAAUAUUACGCUUG	-3.11 ± 0.21	-2.1 ± 0.19
CGCAAGCAAUAUUACGAUGC		-2.4 ± 0.32
ACCGAGCAAUAUUACGCCUU	-2.75 ± 0.24	-1.32 ± 0.19
GGUUAGCAAUAUUACGAUAA	-0.985 ± 0.12	-0.35 ± 0.14
UUCUAGCAAUAUUACGCCAA	-1.75 ± 0.21	-0.272 ± 0.2
UGAGAGCAAUAUUACGCGAG	-3.56 ± 0.37	-2.34 ± 0.22
GACAAGCAAUAUUACGUCAU	-3.05 ± 0.15	-2.62 ± 0.16
GAACAGCAAUAUUACGGUGA	-1.08 ± 0.071	0.0381 ± 0.08
AUUCAGCAAUAUUACGCCGA	0.0822 ± 0.39	-0.539 ± 0.39
UUACAGCAAUAUUACGCCUU	-2.35 ± 0.22	-0.83 ± 0.17

Sequence	self-splicing fitness (ln) (30 °C)	self-splicing fitness (ln) (37 °C)
AUCAAGCAAUAUUACGUAGG	-2.91 ± 0.1	-1.51 ± 0.11
GAAAAGCAAUAUUACGUCCG	-1.72 ± 0.12	-0.481 ± 0.14
AAUGAGCAAUAUUACGAUCG	-3.6 ± 0.32	-2.59 ± 0.24
CAGCAGCAAUAUUACGUUUG	-3.1 ± 0.16	-2.01 ± 0.16
UUCUAGCAAUAUUACGUCUG	-2.22 ± 0.12	-2.49 ± 0.21
AAUAAGCAAUAUUACGGCCG	-0.879 ± 0.12	0.196 ± 0.2
GUAGAGCAAUAUUACGGAGA	-2.58 ± 0.3	
UAACAGCAAUAUUACGUAGC	-3.86 ± 0.17	-2.02 ± 0.11
GACCAGCAAUAUUACGCGGU	-4.81 ± 0.39	-3.27 ± 0.27
CGGCAGCAAUAUUACGCAUU	-2.66 ± 0.15	-2.33 ± 0.14
AUAAAGCAAUAUUACGUGGU	-2.45 ± 0.094	-1.64 ± 0.1
UGAGAGCAAUAUUACGACUU	-3.87 ± 0.22	-2.31 ± 0.18
AAAUAGCAAUAUUACGGCAC	-0.691 ± 0.1	0.0337 ± 0.12
CCUGAGCAAUAUUACGGAUU	-2.74 ± 0.18	-2.34 ± 0.16
GCAAAGCAAUAUUACGGACU	-0.621 ± 0.047	0.0957 ± 0.075
AUCCAGCAAUAUUACGUCUG	-3.67 ± 0.23	-2.55 ± 0.25
GCACAGCAAUAUUACGACCG	-1.14 ± 0.098	0.0916 ± 0.15
AGGGAGCAAUAUUACGCCAC	-2.47 ± 0.49	
GGAAAGCAAUAUUACGUUAG	-3.14 ± 0.16	-1.9 ± 0.15
